# Assay: yeast display, Sf9 membrane polyspecificity reagent, FACS + sequencing; frameworks hold sequencing errors
# Method in brief: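 Galactose induction of a Saccharomyces cerevisiae BJ5465 synthetic nanobody display library ran 36–48 hours. The cells were then stained for 1 hour at 4 °C with 10% biotinylated, detergent-solubilized Sf9 membrane reagent, pulled down on streptavidin microbeads and FACS-sorted into low and high (top ~1%) gates on expression and reagent-binding fluorescence. Labels for polyreactivity follow the gate of origin.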
row,Sequence,polyreactivity (PSR sort gate)
1,QVQLVESGGGLVQAGGSLRLSCAASGRTFRPYAMGWYRQAPGKERELDAAIDSSGTSTYYADSVKGRFTISRDNAKNTVYLQMNSLKPEDTAVYYCAKAWPDHWFSRYDYWGQGTQVTVSS,low polyreactivity
2,QVQLVESGGGLVQAGGRLRLSCAASGFTFVKNAMGWYRQAPGKERELVAAISSRGGSTYYADSVKGRFTISRDNAKNTVYLQMNSLKAEDTAVYYCATERERTMGYWGQGTQVTDSS,high polyreactivity
3,QVQLVESGVGLVQAGGSLRLSCAASGLTFYLYSMGWYRQAPGKERELVAAINSRGGNTYYADSVKGRFTISRDKAKNTVDLQMNSLKPEDTAVYYCAADWGPWYYYWGQGTQVTVSS,high polyreactivity
4,QVQLLESGGGLVQAGGILRLSCAASGIIFRYYTMGWYRPAPGKERELVAAITSGGSTNYADSVKGRFTISRDNAKHTVYLQMNRLKPEDTAVYYCRQLSVWGYDYWGQGTQVTVSS,high polyreactivity
5,QVQLVESGGGLVQAGGSLRLSCTASGIIFGTYAMGWYRQAPGKERELVAAISSSGVSTYYADSVKGRFTISRDNAKNTVYLQMNSLKPEDTAVYYCAAPLHYGYYYWGQGTQVTVSS,high polyreactivity
6,QLQLEESGGGLVQAGGSLRLSFAASGLTFGRNAMGWYRQATGKVREFVAAISKSGTSTYYADSVKGRFTISRDNAKNTVYLQMISLKPEDTAVYDCARTNYAKRWDFDYWGQGTQVTVSS,low polyreactivity
7,QVQHVESGGGLVQAGGSLRLSCAASGNSFRYYTMGWYRQAPGKEREFVAAISWSGGRTRYADSVKGRFTISRDNAMITVYLQMNSLKPEDTAVYYCAAYTPSYGGRDYWGQGTQVTVSS,low polyreactivity
8,QVQLVESGGGLVQAGGSLRLSCAASGSTFFLYVRGWYRQAPGKERELVAAITSGGRTYYADSVKGRFTISRDNAKNTVYLQMNSLKPEDTAVYNCAADVRRVRVGKYDYWGQGTQVTVSS,high polyreactivity
9,QVQLVESGGGLVQAGGSLRLSCAASGSTISGNAMGWYRQAPGKERELVAAISQSGGSTYYADSVKGRFTISRDNAKNTVYLQMNSLKPEDTAVYYCNRLYYFLARRMDSWGQGTQVTVSS,high polyreactivity
10,QVQLVESGGGLVQAGGSLRLSCAASGYIFGVYAMGWYRQAPGKERELVAAISYGVGSTYYADSVKVRFTISRDNAKNTVYFQMNSLKPEDTAVYYCAADVFFYVYEAYLLYYWGQGSQVTVSS,low polyreactivity
11,QVQLVESGGGLVQAGGSLRLSCAASGSIFLIYAMAWYRQAPGKERELVAAISSGGSTYYADSVKGRFTISRDNAKNTVYLQMNSLKPEDTAVYYCATYSTSVAYHLYYWGQGTQVTVSS,low polyreactivity
12,QVQLVESGGGLVQAGGSLRLSCAASGSTFDTYAMGWYRQAPGKERELGAAISWSVDSTYYADSVKGRFTISRDNAKNTVYLQMNSLKPEDTAVYYCATVGYGYDYWGQGTQVTVSS,high polyreactivity
13,QVQLVESGGGLVQAGGSLRLSCAASGSTISGYAMGWYRQAPGKERELVATISRGGSTNYADSVKGRFTISRDNAKNTVYLQMNSLKPEDTAVYYCAAQTYVWWVKYHSWGQGTQVTVSS,low polyreactivity
14,QLQLVESGGGLVQAGGSLRLSCAASGRIFVYYAMGWYRQAPGKERELVASISYSGASTYYADSVKGRFTISRDNAKNTVYFQMNSLKPEDTAVYYCNTDGDDFFHVIYDYWGQGTQVTVSS,low polyreactivity
15,QVQLVESGGGLVQAGGSLRLSCAASGFILIRNGMGCYRQAPGKERELVAAISRSGRTYYADSVKGRFTISRDNAKNTVYLQMNSLKPEDTAVYYCAKRDYLYGRYDYSGQGTQVTVSS,high polyreactivity
16,QVQLVESGGGLVQAGGSLRLSCAASGRIFGNTAMGWYRQAPGKERELVAAIRSRGTRTYYADSVKGRFTISRDNAKNTVYLQMNSLKPEDTAVYYCATTSLTGRYDRYDYWGQGTQVTVSS,high polyreactivity
17,QVQLVESGGGLVQAGGSLRLSCAASGSIYGFYAKGWYRQAPAKESELVAAIDSGDSSNYADSVKGRFTISRDNAKNTVYLQMKSLIPEDTAVYYWNAEAWWYFCFDYWGQGTQVTVSS,low polyreactivity
18,QVQLVESGGGLVQAGGSLRLSCDASGFTFYGNAMGWYRQAPGKERELVAAISGRGGSTYYADSVKGRFTISRDNAKNTVYLQMNSLKPEDTAVYYCAIYVSWPLYYYWGQGTQVTVSS,low polyreactivity
19,QVQLVESGGGLVQAGGSLRISCSASGGIFDPYAMGWYRQAPGKERELVAAITNSGGSTYYADSVKGRFTISRDNAKNTVYLQMNSLKPEDSAVYYCAAEGLYVGYDYWGHGTQVTVSS,low polyreactivity
20,QVQLVESGGGLVQAGGSLRLSCAASGFTFDFYVMGWYRPAPGTERELVAANSWDGGTTYYADSVKGRFTISRDNAKNTVYLQLNSLKPEDTAVYYCAADDWVYVPTGAWYLYEYWGQGTQVTVSS,high polyreactivity
21,QVQLVESGGGLVQAGGSLRLSCAASGRTFYYYALGWDRQAPAKERELVAAIRWRGGRTYADSVKGRFTISRDNAKNTVYVQMNSLKPEDTAVYYCAVESFYRHASLYDYWGQGTQVTVSS,high polyreactivity
22,QVQLVESGGGLVQAGGSLRLSCAASGSTFYRNAMGWYRQAPGKERELVAGISRRGGSTYYADSVKGRFTISRDNAKNSVYLQMNSLKPEDTAVYYCAADVRSGGVAYGYGYWGQGTQVTVSS,high polyreactivity

row,Sequence,polyreactivity (PSR sort gate)
1,QVQLVESGGGLVQAGGSLRLSCAASGRSFCTYAMGSYRQAPGKERELVAAITSGGSTNYADSVKGRFTISRDNAKNTVYLQMNSLKPEDTAVYYCAAVEYLRESDYWGQCTQVTVSS,low polyreactivity
2,QVQLVESGGGLVQAGGSLRLSCAASGRTFGVYAMGWYRQAPGKERELVATITSVDRTNYADSVKGRFTISRDNAKNTVYLQMNSLKPEDTAVYYCAAVGRWPRYYYWGQGTQVTVSS,high polyreactivity
3,QVQLVESGGGLVQAGGSLRLSCAASGLIFQVYDMGWYRQAPGKERELDAAISSGSNTNYADSVKGRFTISRDNAKNTVYLQMNSLIPEDTAVYYCAASWGYGGLTPDMGYWGQGTHVTVSS,low polyreactivity
4,QVQLVESGGGLVQAGGSLRLRCAASARTFAGYALGWYRQAPGKERELVAAITTGGSTKYADSVKGRFTISRDNAKNTVYLQMNSLKQEDTAVYYCAAESYYKYFNKYDYWGQGTQVTVSS,high polyreactivity
5,QVQLVESGGGLVQAGGSLRLSCAASGSIFGNYVMGWYRQAPGKERELVAAITSDGSTYYADSVKGRFTISRDNAKNTVYLQMNSLKPEDTAVYYCNAVYEGLQSRWYKGGLYSFDYWGQGTQVTVSS,low polyreactivity
6,QVQLVESGGGLVHAGGSLLLSCAASGFISSRYAMGWYRQAPGKERELVAAISRGGGSTYYADSVKGRFTISRDNAKNSVYLQMNSLKPEYTAVYYCAAAARGSPQYDYWGQGSQVTVSS,high polyreactivity
7,QVQLVESGGGLVQAGGSLRLSCAASGIFGWYAMGWYRQARGKEREFVATINWSGGRTYYADSVKGRFTISRDNAKNTVYVQMNSLKPEDTAVYYCAPENYASQYDYWGQGTQVTVSS,low polyreactivity
8,QVQLEESGGGLVQAGGSLRLSCAASRRIFGSNAMGWYRQAPAKERELVAVITSGGRTYYADSVKGRFTISRDNAKNTVYLQMNSLKPGDTSVYYCNAYYKAAYDYWGQGTQVTVSS,high polyreactivity
9,QVQLVESGGGLVHAGGSLRLSCAASGSIFGRNAMGWYRQPPGKERELVARISSRGGSTYYADSVKGRFTISRDNAKNTVYLQMNSLKPEDTAVYYCNRDRTSQTNDYWGQGNQVTVSS,high polyreactivity
10,QVQLVESGGGLVQAGGSLRLSCASSGFTSWDNDMGWYRQAPGKERELVAAISRGGSTNYADSVKGRFTISRDNAKDTVYLQMNSLKPVDTAVYYCNADFAPWDKQDYPYDYDYWGQGTQVTVSS,low polyreactivity
11,QVQLVESGGGLVQAGGSLRLSCAASGITFPWYAMGWYRQAPGKERELVAAISSDADTYYADSVKGRFTISRDNAKNTVYLQMISLKPEDTAVYYCAAETFDYSRGYTAMGYWGQGTQVTVSS,high polyreactivity
12,QVQLVESGGGLVQAGGSLRLSCAASGSTVGAYAMGWYRQAPGKERELVAAISYSGGSTYYADSVKGRFTISRDNAKNSVYLQMNSLKPEDSAVYYCAAGTKYTSAVHFFYWGQGTQVTVSS,high polyreactivity
13,QVQLVESGGGLVQAGGSLRLSCAASGSIFSRYAMGRYRQAPGKERELVAAISKSGGSTYYADSVKGRFTISRDNAKNTVYLQMNSLKPEDTAVYYCNARDSPGQRRAEPYGYWGQGTQVTVSS,high polyreactivity
14,QVQLVESGGGLVQAGGSLRLSCAASGSTFYPYAMGWYRQATGKERELVAAISSGGSTSYADSVKGRFTISRDNAKNTVYLQMNSLKPEDTAVYFCNASSPGAVPVYDYDYWGQGTQVTVSS,low polyreactivity
15,QVQLVESGGGLVQAGGSLRLSCAASGFTFYYNAMGWYRQAPGKERELVATISGSGGRTYYADSVKGRFTISRDNAKNTVYLQMNSLKPEDTAVYYCAARYVWSRYGYWGQGTQVTVSS,high polyreactivity
16,QVQLVESGGGLVQAGGSLRLSCAASGFIFSVNTMGWYRQAPGKERELVAAISSSSGRTYYADSVKGRFTISRDNAKNTVYLQMNSLKPEDTAVYYCAVLYRWFGAYETYDYLGQGTQVTVSS,high polyreactivity
17,QDQLVESGGGLVQAGGSLRLSCAASGSIFLYNAMGWYRQAPGKERELVADITSAGRTYYADSVKGRFTISRDNAKNTVYLQMNSLKPEDTAVYDCNKDYHYHFSWYGYWGQGTQVTVSS,low polyreactivity
18,QVHLVESGGSLVQAGGSLRLSCAASGFIFSWYAMGWYRQAPGKERELLAAISHEGGYTYYADSVKGRFTISRDNSKNNVYLQMYSLKPEDTAVYYCAPAFRAAGRSVRYYWGHGTQVTVSS,high polyreactivity
19,QVQLVESGGGLVQAGGSLRLSCAASGFIFNYNTMGWYRQAPGKERELVAAISFSGGSTYYADSVKGRFTISRDNAKNTVYLQMNSLKPEDTAVYYCATRNGRQYSVSYRYYYWGQGTQVTVSS,low polyreactivity
20,QVQLVESGGGLVQAGGSLRLSCAASVSTFGDYTMGWYRQAPGKERELVAAITLTGGSTYYADSVKGRFTISRDNAKNTVYLQMNSLKPEDTAVYYCNTDVIRWVGGTWHRYYYWGQGTQVTVSS,low polyreactivity
21,QVQLVESGGGLVQAGGSLRLSCAASGSIFTRNTMGWSRQAPGKERELVAAISQRGGSTYSADSVKGRFTISRDNAKNTVYLQMNSLKPEDTAVYYCAADFSFGYYWDGFWGQGTQVTVSS,high polyreactivity

# — the nanobody polyreactivity screen of Harvey et al. (2022)
